Target: T1, NaWRKY70 (Nicotiana attenuata, UniProt A0A1J6IGI0 1-225)
T1 chain: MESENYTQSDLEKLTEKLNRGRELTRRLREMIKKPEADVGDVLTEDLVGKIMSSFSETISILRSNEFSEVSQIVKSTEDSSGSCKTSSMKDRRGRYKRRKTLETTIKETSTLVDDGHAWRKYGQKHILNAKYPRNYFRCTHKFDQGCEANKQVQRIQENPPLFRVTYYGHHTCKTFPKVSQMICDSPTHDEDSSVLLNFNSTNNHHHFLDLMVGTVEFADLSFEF
Experiment: EMSA; Chemiluminescence EMSA kit (Beyotime), manufacturer's protocol; buffer, salt, pH and temperature not stated
Conditions: protein: recombinant; tags: GST (pGEX-4T-1); chain copies: 0; label: biotin

B1: NaF6'H1 mProbe 1 (dsDNA)
DNA 1: GGTCTCTTTAGCTCTACCAACTATTC
DNA 2: GAATAGTTGGTAGAGCTAAAGAGACC
binding result: no binding

Source: paper PMC10837013, “Synergistic induction of phytoalexins in Nicotiana attenuata by jasmonate and ethylene signaling mediated by NaWRKY70”
